The source of these data is patent US20220017863A1 (H LEE MOFFITT CANCER CENTER AND RESEARCH INSTITUTE, published 2022).

The experiment has as its target T1, Sirt2 (mouse, UniProt Q8VDQ8 2-389, limits assumed).
T1 construct: Endogenous protein immunoprecipitated from T cell lysates with anti-Sirt2 (Sigma #9441); also called Sirtuin 2
T1 sequence (looked up): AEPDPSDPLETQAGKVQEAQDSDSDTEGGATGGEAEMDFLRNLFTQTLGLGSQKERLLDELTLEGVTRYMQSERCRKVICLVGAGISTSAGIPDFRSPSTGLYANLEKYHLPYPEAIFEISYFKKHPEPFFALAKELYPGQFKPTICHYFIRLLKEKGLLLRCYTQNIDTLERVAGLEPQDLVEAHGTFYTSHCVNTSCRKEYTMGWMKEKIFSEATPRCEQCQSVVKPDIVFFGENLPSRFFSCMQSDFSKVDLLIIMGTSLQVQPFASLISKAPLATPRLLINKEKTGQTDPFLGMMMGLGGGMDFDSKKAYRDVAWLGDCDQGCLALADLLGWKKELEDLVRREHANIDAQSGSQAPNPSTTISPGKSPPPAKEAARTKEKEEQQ
Description: co-IP/immunoblot and reverse co-IP/immunoblot, activated WT mouse CD3+ T cell extracts.

B1: succinate-CoA ligase alpha subunit (SUCLG1) (enzyme)
chain: not shown
notes: also called succinyl-CoA ligase alpha subunit; Succinyl-CoA Ligase
On to B1, for which the binding result is “binds”.

B2: aldolase A (ALDOA) (enzyme, mouse, UniProt P05064 2-364, looked up)
chain: PHPYPALTPEQKKELSDIAHRIVAPGKGILAADESTGSIAKRLQSIGTENTEENRRFYRQLLLTADDRVNPCIGGVILFHETLYQKADDGRPFPQVIKSKGGVVGIKVDKGVVPLAGTNGETTTQGLDGLSERCAQYKKDGADFAKWRCVLKIGEHTPSALAIMENANVLARYASICQQNGIVPIVEPEILPDGDHDLKRCQYVTEKVLAAVYKALSDHHVYLEGTLLKPNMVTPGHACTQKFSNEEIAMATVTALRRTVPPAVTGVTFLSGGQSEEEASINLNAINKCPLLKPWALTFSYGRALQASALKAWGGKKENLKAAQEEYIKRALANSLACQGKYTPSGQSGAAASESLFISNHAY
notes: also called Aldolase 1
For B2, the binding result is “binds”.
